{
  "source": "paper PMC8594432",
  "about": "“One-step, kit-based radiopharmaceuticals for molecular SPECT imaging: a versatile diphosphine chelator for ^99mTc radiolabelling of peptides” (Dalton Transactions (Cambridge, England : 2003), 2021)",
  "format": "physicochemical",
  "excerpt": "Reaction of RGD with BMA[21,22] in a basic solution of DMF followed by semi-preparative reverse-phase C18 HPLC provided the diphosphine conjugate DP-RGD (Scheme 1) in ≥95% purity and 86% yield. DP-RGD was characterised by ^1H, ^13C and ^31P NMR, analytical HPLC and HR-ESI-MS (Fig. S1–S6 and Tables S1, S2 ^†).",
  "data": [
    {"smiles": "N=C(N)NCCC[C@@H]1NC(=O)[C@H](CCCCNC(=O)/C(=C(\\C(=O)O)P(c2ccccc2)c2ccccc2)P(c2ccccc2)c2ccccc2)NC(=O)[C@@H](Cc2ccccc2)NC(=O)[C@H](CC(=O)O)NC(=O)CNC1=O", "note": "[DP-RGD]", "values": [
      {"measurement": "stability in acidic solutions (in words)", "value": "decomposed to re-form RGD and BMA"},
      {"measurement": "stability to oxidation in solution (in words)", "value": "slowly oxidised in solution to phosphine oxide derivatives"},
      {"measurement": "stability to oxidation in the solid state (in words)", "value": "stable to oxidation"}
    ]}
  ]
}
